From article PMC11172336, “Exploring Syndecan-4 and MLP and Their Interaction in Primary Cardiomyocytes and H9c2 Cells” (Cells, 2024)
Substitutions are numbered along the chain they refer to. Values joined by “and” are separate entries in the source; they are usually repeats but may differ in a detail not shown here. Identical values can stand only once. Where no end group is shown, it is not given here. The star is where a group is joined. Biotin = O=C1N[C@H]2[C@H](CS[C@H]2CCCCC(=O)*)N1

B1: biotinylated MLP-WT peptide aa 50-79 (peptide, UniProt P50461 50-79, looked up)
peptide: Biotin-AAHESEIYCKVCYGRRYGPKGIGYGQGAGC
modifications: cysteine pairing not given here
notes: Muscle LIM Protein (MLP, CSRP3), human, 30-mer, residues 50-79, covering the end of LIM1 and the NLS; also called MLP peptide aa 50–79; source: synthetic peptide (GenScript, >80% purity)
B2: biotinylated MLP-WT peptide aa 125-154 (peptide)
peptide: not shown
modifications: N-terminal biotin tag
notes: source: synthetic peptide (GenScript, >80% purity)
B3: MLP, endogenous in adult rat primary cardiomyocytes (natural protein, UniProt P50463 1-194, looked up)
chain: MPNWGGGAKCGACDKTVYHAEEIQCNGRSFHKTCFHCMACRKALDSTTVAAHESEIYCKVCYGRKYGPKGIGFGQGAGCLSTDTGEHLGLQFQQSPKPARAATTSNPSKFSAKFGESEKCPRCGKSVYAAEKVMGGGKPWHKTCFPCAICGKSLESTNVTDKDGELYCKVCYAKNFGPTGIGFGGLTHQVEKKE
notes: Muscle LIM Protein (MLP, CSRP3), rat; source: endogenous, enriched subcellular fractions of freshly isolated adult rat LV cardiomyocytes
B4: recombinant 6xHis-MLP C58G (natural protein, human, UniProt P50461 1-194, looked up)
chain: B3 chain with D14E, C58G, K65R, F73Y, A101S, A102V, S111T, P146R, H188Q
notes: Muscle LIM Protein (MLP, CSRP3), human, with a patient mutation; source: bought: GenScript (recombinant protein, >80% purity); not shown: His6, N-terminal, kept
B5: recombinant 6xHis-MLP W4R (natural protein, human, UniProt P50461 1-194, looked up)
chain: B3 chain with W4R, D14E, K65R, F73Y, A101S, A102V, S111T, P146R, H188Q
notes: Muscle LIM Protein (MLP, CSRP3), human, with a patient mutation; the eight mutated recombinant proteins are named in the abstract; source: bought: GenScript (recombinant protein, >80% purity); not shown: His6, N-terminal, kept
B6: recombinant 6xHis-MLP G72R (natural protein, human, UniProt P50461 1-194, looked up)
chain: B3 chain with D14E, K65R, G72R, F73Y, A101S, A102V, S111T, P146R, H188Q
notes: as for B4
B7: recombinant 6xHis-MLP L44P (natural protein, human, UniProt P50461 1-194, looked up)
chain: B3 chain with D14E, L44P, K65R, F73Y, A101S, A102V, S111T, P146R, H188Q
notes: as for B4
B8: recombinant 6xHis-MLP Y66C (natural protein, human, UniProt P50461 1-194, looked up)
chain: B3 chain with D14E, K65R, Y66C, F73Y, A101S, A102V, S111T, P146R, H188Q
notes: as for B4
B9: recombinant 6xHis-MLP Q91L (natural protein, human, UniProt P50461 1-194, looked up)
chain: B3 chain with D14E, K65R, F73Y, Q91L, A101S, A102V, S111T, P146R, H188Q
notes: as for B4
B10: recombinant 6xHis-MLP R64C (natural protein, human, UniProt P50461 1-194, looked up)
chain: B3 chain with D14E, R64C, K65R, F73Y, A101S, A102V, S111T, P146R, H188Q
notes: as for B4
B11: recombinant 6xHis-MLP-WT (natural protein, human, UniProt P50461 1-194, looked up)
chain: B3 chain with D14E, K65R, F73Y, A101S, A102V, S111T, P146R, H188Q
notes: Muscle LIM Protein (MLP), encoded by CSRP3, human, 194 amino acids; on the native blot a mixture of monomer, dimer, trimer and tetramer; also called full-length recombinant 6xHis-MLP-WT protein; Muscle LIM Protein; source: bought: GenScript (recombinant protein, >80% purity); not shown: His6, N-terminal, kept
B12: recombinant 6xHis-MLP K69R (natural protein, human, UniProt P50461 1-194, looked up)
chain: B3 chain with D14E, K65R, K69R, F73Y, A101S, A102V, S111T, P146R, H188Q
notes: as for B4

Key:
recombinant 6xHis-MLP-WT = molecular target: B11; experiment: ELISA; wells coated with 10 µg of WT or mutated full-length 6xHis-MLP recombinant protein in PBS; biotinylated overlapping MLP-WT 30-mer peptides at 2–5 µM for two hours at 37 °C; signal of PBS-coated wells subtracted; conditions: both partners purified
[1] = molecular target: B4; experiment: as above; conditions: both partners purified
[2] = molecular target: B7; experiment: as above; conditions: both partners purified
[3] = molecular target: the molecule itself; experiment: immunoblotting under native conditions; 20 µg of cytoplasmic-, nuclear-, membrane- and cytoskeletal-enriched fractions of adult rat cardiomyocytes in native sample buffer, not boiled, SDS-containing running buffer; blot with C-terminal anti-MLP (#R06991)
[4] = molecular target: the molecule itself; experiment: immunoblotting under native conditions; 0.5 µg of recombinant 6xHis-MLP WT or mutated protein in native sample buffer, not boiled, SDS-containing running buffer; blot with C-terminal anti-MLP (#R06991); densitometry

| Binder | binding result [4] | other results |
| --- | --- | --- |
| B1 | – | binding result (recombinant 6xHis-MLP-WT): binds; binding result [1]: binds |
| B2 | – | binding result [2]: binds; binding result (recombinant 6xHis-MLP-WT): binds; binding result [1]: binds |
| B3 | – | stoichiometry N [3]: 2 and 3 and 4 |
| B4 | binds | – |
| B5 | binds | – |
| B6 | binds | – |
| B7 | binds | – |
| B8 | binds | – |
| B9 | binds | – |
| B10 | binds | – |
| B11 | – | stoichiometry N [4]: 2 and 3 and 4 |
| B12 | binds | – |
